# Test results as given in patent publication US20100239587A1 (published 2010).
# Bridge positions count the residues as written; N and C are the ends. Ends that are not written are not given here.
# B1: CD4-G (peptide)
# peptide: FCYIGEVEDQCY
# modifications: disulfide 2-11 (inferred)
# notes: Negative control peptide; also called CD4 receptor-derived cyclic peptide; control peptide
# B2: B2-S22-AFA (peptide)
# peptide: YCFPDEEGACY
# modifications: disulfide 2-10 (inferred)
# notes: Cyclic peptide that mimics part of the S22 loop of erbB2
# Legend:
# [1] = target: TNF receptor (immobilized control); test: SPR, receptor immobilized, peptide injected
# [2] = target: T1, ErbB2 extracellular domain (recombinant) (UniProt P04626 23-652, limits assumed); test: SPR; 10 µM peptide pre-injected over immobilized ErbB2; competitor: ErbB3 ectodomain (300 nM) with HRGβ1 (5 µM)
# T1 construct: extracellular domain; also called erbB2 ectodomain; full-size erbB2 ectodomain
# [3] = target: T2, ErbB3 extracellular domain (recombinant, soluble) (UniProt P21860 20-643, limits assumed); test: SPR; 10 µM peptide pre-injected over immobilized ErbB3; competitor: ErbB3 ectodomain (300 nM) with HRGβ1 (5 µM)
# T2 construct: extracellular domain; Used both immobilized and as the injected analyte (300 nM, alone or with 5 µM HRGβ1); also called erbB3 ectodomain
# T2 sequence (P21860 20-643 limits assumed): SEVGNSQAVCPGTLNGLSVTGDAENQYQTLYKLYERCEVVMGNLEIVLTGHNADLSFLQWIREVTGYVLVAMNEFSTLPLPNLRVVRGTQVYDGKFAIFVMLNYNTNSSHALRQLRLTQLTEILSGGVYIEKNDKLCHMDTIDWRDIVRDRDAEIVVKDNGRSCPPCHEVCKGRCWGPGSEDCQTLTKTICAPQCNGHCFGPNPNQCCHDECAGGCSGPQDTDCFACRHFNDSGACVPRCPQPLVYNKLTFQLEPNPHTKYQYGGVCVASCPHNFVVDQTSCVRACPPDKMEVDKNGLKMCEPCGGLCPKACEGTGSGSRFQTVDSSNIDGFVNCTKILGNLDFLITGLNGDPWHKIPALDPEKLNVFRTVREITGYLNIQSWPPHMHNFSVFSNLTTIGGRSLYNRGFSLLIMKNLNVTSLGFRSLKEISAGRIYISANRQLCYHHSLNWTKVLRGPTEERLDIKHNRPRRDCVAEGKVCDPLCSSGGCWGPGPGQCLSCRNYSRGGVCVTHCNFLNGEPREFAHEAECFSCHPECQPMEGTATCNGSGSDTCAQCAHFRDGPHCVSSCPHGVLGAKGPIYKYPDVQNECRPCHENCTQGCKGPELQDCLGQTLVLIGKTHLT
# [4] = target: T3, ErbB1 extracellular domain (recombinant, soluble) (UniProt P00533 25-645, limits assumed); test: SPR; 10 µM peptide pre-injected over immobilized ErbB1; competitor: ErbB3 ectodomain (300 nM) with HRGβ1 (5 µM)
# T3 construct: extracellular domain; also called erbB1 ectodomain; EGFr
Binder,Kd [1],Percent Inhibition [2],Percent Inhibition [3],Percent Inhibition [4]
"YCLVWKYADAGCY (disulfide 2-12 (inferred), Derived from the S22 repeat of erbB1) [B1-S22-ALG]",> 1000 µM,–,–,–
"YCPIWKFPDEECY (disulfide 2-12 (inferred), Derived from the S22 repeat of erbB2) [B2-S22-APE]",> 1000 µM,–,–,–
B1,> 1000 µM,-1.2%,3.1%,2.4%
"YCPIYKYPDVQCY (disulfide 2-12 (inferred), Derived from the S22 repeat of erbB3) [B3-S22-APQ]",> 1000 µM,–,–,–
"YCFIFKYADPDCY (disulfide 2-12 (inferred), Derived from the S22 repeat of erbB4) [B4-S22-AFD]",> 1000 µM,–,–,–
B2,> 1000 µM,–,–,–
